# Measurements as given in the nanobody polyreactivity screen of Harvey et al. (2022).
# Experiment: yeast display, Sf9 membrane polyspecificity reagent, FACS + sequencing; frameworks hold sequencing errors
# Outline: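 Polyreactivity labels are assigned by the sorting gate from which each nanobody was recovered. The gates were low and high (top ~1%), set on anti-HA fluorescence for expression and streptavidin fluorescence for reagent binding. Before sorting, galactose-induced (36–48 hours) yeast display cells were stained for 1 hour at 4 °C with 10% biotinylated, detergent-solubilized Sf9 membrane reagent.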
row,Sequence,polyreactivity (PSR sort gate)
1,QVRLVESGGGLVQAGGSLRLSCAASGFTFSPYAMGWYRQAPGKERELVAAITSSGGSTYYADSVKGRFTISRDNAKNTVYLQMNSLKPDDTAVSSCAKEIRYSSSVSESDYWGQGTQVSVSS,high polyreactivity
2,QVRLVESGGGLVQAGGSLRLSCAASGRIFQYYAMGWYRQAPGKERELVASITSGGGSTYYADSVKGRFTISRDNAKNTVYVQMNSLKPEDSAVYYCAVDIYNYSNVHYYYWGQGTQVTVSS,low polyreactivity
3,QVRLVESGGGLVQAGGSLRLSCAASGSIFDVYAMGCYRQAPGKERELVATISYGDSSTYYADSVKGRFTISRDTAKNTVYLQMNSLKPEDTAVYYCAADYLTAPRWRQWGEMDYWGQGTQVTVSS,low polyreactivity
4,QVRLVETGGGLVQAGGSLRLSCAASGSTFPHYTMGWYIQAHGKERELVAVISRSGRTYYADSVKGRFTISRDNAKNTFYLQMNSLKPEDTAVYYCDVLVGRLVWSYNHWGQVTQVTVSS,high polyreactivity
5,QVWLQESGGGLVQACGSLSLSCAASGTISRDIFMGWYRQAPGKEREFVATIAQGGITNYADSVKGRFTISRDNAKNTVYLQKNSVKPGDTAVYYCEALDGNCYWFYYWGQGTQVTVSS,high polyreactivity
6,QYQLVESGGGLVQAGGSLRLSCAASGSTFRYYAMGWYRQAPGKETELVAAISTRGGTTYYADSVKGRFTISRDNAKNTVYLQMNSLKPEDTAVYYCAAEALVPLIYYYWGQGTQVTVSS,low polyreactivity
7,REQLQESGGGLVQAGGSLRLSCAASGTIFIRGDMGWYRQSPGKEREFVATIDTGSNTYYADSEKGRFTISRDNAINAVYLQMYCLKPGYTAVYYCVVDYQLSGRLRYWGQGTQVTLSS,low polyreactivity
8,RVHLQESGGGLVQAGGSLRLSCAASGTIFIRGDMGWYRQAPGKEREFVATIDTVSNTYYADSEKGRFTISRDNAKNAVYLQMNCLNPGDTAVYYCVVDYQLAGRLRYWGQGTQVTLSS,low polyreactivity
9,RVQLQESGGGLVQAGGSLRLSCAASGTIFIRGDMGWYRQAPGKEREFVATIDTGSNTYYADSEKGRFTISRDNAKNAVYLQMNCQQPGDTAVYYCVVDYQLSGRLRYWGQGTQVTLSS,low polyreactivity
10,RVQLQESGGGLVQAGGSLRLSCAPSSTISRYFYMGWYRQAPGKEREFVASITYGASTNYADSVKGRFTISRDNAKNTVYLQMNSLKPEDTAVYYCNAKQQPYGGTDYDYWGQGTQVTVSS,low polyreactivity
11,RVQLQESGGGLVQAGGSLRLSCEASGTIFIRGDMGWYRQATGKEREFVATIDTGSNTYYADSEKGRFTISRDNAKNAVYLQMNCLKPGDTAVYYCVVDYQLSGRLRYWGQGTQVTLSS,low polyreactivity
12,RVQLVESGGGLVQAGGSLRLSCAASGFTIQRYAMGWYRQAPGKVRELVAGITGGGNTKYADSVKGRFTISRDNAKNTVYLQMNSLKPEDTAVYYCAARGGVPRGKFGYDYWGQGTQVTVSS,high polyreactivity
13,VVQLVESGGGLVQAGGRLRLSCAASGIIFGRYAMGWYRQAPGKERELVASITGNGSTTYYADSVKGRFTISRDNAKNTVYLQMNSLKPDDTAGYYCAADIVVGSPSAEFDYWGQGTQVTVSS,low polyreactivity
14,YYADSVKGLFTISRDNAKNTVYLQMNSLNPEDTAVYYCNAGYYISFNPYDYWGQGTQVTVSS,low polyreactivity
